Laboratory results reported in patent US20220313789A1, “TARGETING MELANOCORTIN 3 RECEPTOR FOR TREATMENT/PREVENTION OF EATING, METABOLISM, AND/OR EMOTIONAL DISORDERS” (The Regents of the University of Michigan, priority 2019, published 2022).
“Also recorded” adds a separate entry of the source. Bridge positions count the residues as written; N and C are the ends. Square brackets hold non-standard residues; d marks the D form. Ends that are not written are not given here. d2Nal = N[C@H](Cc1ccc2ccccc2c1)C(=O)O; Ac6c = NC1(C(=O)O)CCCCC1; Nle = CCCC[C@H](N)C(=O)O

Assays:
MC3R [1] = biological target: T1, MC3R (Homo sapiens, UniProt P41968); assay: Primary HTS antagonist assay / screen for MC3R antagonists
Description: Primary HTS antagonist assay. […] (B): Positive and negative assay with kinetics of antagonist and agonist addition indicated. (C): Scatterplot of corrected and normalized data. Typical Z′ factors are above 0.5.

MC3R [2] = biological target: T2, MC3R (Mus musculus, UniProt P33033); assay: MC3R agonist feeding assays (food intake, body weight) in WT mice; type: in vivo; details: for Acute food intake: 10 mg/kg, i.p., ad libitum fed mice, relative to vehicle; for 24-hour food intake / body weight: single peripheral injection
T2 construct: from tissue; host or cells: living mice (C57/BL6J background), central nervous system / hypothalamus
Method: Clozapine-N-Oxide (CNO) was purchased from Enzo Life Sciences. On the day of experiments fresh stock CNO (1 mg/0.1 ml) was prepared in water. CNO was administered via i.p. injections (200 ul Saline; 1 mg/kg). […] (5 ug; 500 nl DMSO).
Behavioral assays were performed on ad libitum fed mice. Mice were single caged for at least one week prior to starting feeding assays. Feeding assays were performed during the light period.
For peripheral administration of MC3R agonist compounds, mice were first habituated to vehicle injections (i.p.; saline in 10% DMSO; 200 ul) for 2-4 consecutive days. Following habituation and consecutive days of stable food intake in response to vehicle injections, agonist compounds were administered (i.p.; 10 mg/kg; saline in 10% DMSO). Food intake was measured following drug or vehicle administration by carefully removing food from the food hopper and weighing on a scale. Cages were changed daily during acute feeding assays to prevent spillage of food from the food hopper.
For central administration of MC3R agonist compounds we first administered vehicle injections (500 nl DMSO) for 2-4 consecutive days to habituate mice to handling and injection. […] Body weight was measured daily immediately prior to injections.

PVN MC4R neurons = assay: In vivo calcium imaging (GCAMP6s endomicroscopy) of PVN MC4R neurons; parameters: species or system mice; details: 10 mg/kg, i.p., vs baseline
Method: (left panels): Heat map displaying relative fluorescence, determined by endomicroscopy (Inscopix) of individual PVN MC4R neurons for five minutes of baseline recording, followed by five minutes of recording in response to a saline injection.
D: Change in florescence following i.p. administration of saline. […] F: Change in fluorescence following i.p. administration of the MC3R agonist C18 (10 mg/kg, i.p.). […] G: Heat plot showing real-time change in fluorescence activity in a representative mouse during baseline and following administration of C18. H: Average trace of the relative change in fluorescence before and after C18 administration. […] Data represents mean+/−s.e.m. for panels D-F. Panels D, F, and I analyzed with paired Student's t-test.

[3] = system: arcuate MC3R expressing neurons (hM3Dq); assay: DREADD (hM3Dq) activation of arcuate MC3R neurons by CNO; type: in vivo, mice
Description: (§1) FIG. 2. Potent Bidirectional Regulation of Feeding by DREADD Activation of MC3R ARC neurons. (A) Representative images showing hM3Dq-mCherry (red), and cfos (green), in the arcuate nucleus of a mouse transduced with hM3Dq in arcuate MC3R expressing neurons following CNO or saline administration. Panels on right are an enlargement of the boxed sections. (B) Quantification of cfos expression in the arcuate nucleus following i.p. injections of saline or CNO (unpaired Student's t-test). […] (C) Acute feeding assays following DREADD mediated activation of arcuate MC3R neurons. Activation of MC3R neurons increased food intake at all times tested (2-way ANOVA with Bonferroni post-hoc test, n=10 mice). (D) Change in body weight following a single injection of CNO or saline. […] (E) Daily food intake in MC3R-Cre mice targeted with the inhibitory DREADD hM4Di in arcuate MC3R expressing neurons. […] (F) Change in body weight following long term CNO injections in hM4Di transfected and WT mice. […]
(§2) To evaluate the effects of DREADD mediated manipulation of ARC-MC3R neurons on feeding and body weight, mice were habituated to twice daily vehicle injections (i.p., saline; 200 ul). […] Food intake was measured twice daily (10 am and 6 pm) during chronic i.p. injection experiments. Body weight was measured daily at 10 am immediately prior to administering CNO/saline. […]

[4] = system: arcuate MC3R expressing neurons (hM4Di); assay: DREADD (hM4Di) inhibition of arcuate MC3R neurons by CNO; type: in vivo; details: hM4Di transfected mice vs WT control
Description: as §1, §2

WT mice = assay: CNO administration to WT mice; type: in vivo
Method: FIG. 9. […] 24-hour food intake following i.p. injections of saline or CNO. […] Data represented as mean+/−s.em. Data analyzed with Student's paired t-test. n=15 mice
Given the enhanced expression of MC3R in the orexigenic arcuate AgRP neurons, relative to POMC and vGLUT2 neurons, experiments were conducted during development of embodiments herein to determine whether the dominant role of MC3R in the arcuate is to stimulate food intake and increase body weight. A previously characterized (Ref. 18; herein incorporated by reference in its entirety) MC3R-Cre mouse model in which Cre recombinase is exclusively expressed in cells containing MC3R was utilized for these experiments. To selectively activate the MC3R expressing neurons in the arcuate, a Cre dependent AAV viral vector expressing the DREADD (designer receptor exclusively activated by designer drugs) activator hM3Dq was stereotaxically targeted to the arcuate nucleus in MC3R-Cre mice (Refs 22-23; herein incorporated by reference in their entireties) (FIG. 2). It was validated that CNO administration activates ARC-MC3R neurons by measuring the neuronal activity marker, cfos, in response to CNO or saline injections. […] To determine if chronic activation of ARC-MC3R neurons is a viable strategy for increasing food intake and body weight CNO was administered twice daily for five consecutive days. […]

MC3R [5] = biological target: T1, MC3R; details: cited from earlier work
MC3R [6] = biological target: T1, MC3R; details: cited from earlier work; remark: listed apart in the source
MC4R [7] = biological target: T3, MC4R (Homo sapiens, UniProt P32245); details: cited from earlier work
MC4R [8] = biological target: T3, MC4R; details: cited from earlier work; remark: listed apart in the source

T1 sequence (P41968 whole entry): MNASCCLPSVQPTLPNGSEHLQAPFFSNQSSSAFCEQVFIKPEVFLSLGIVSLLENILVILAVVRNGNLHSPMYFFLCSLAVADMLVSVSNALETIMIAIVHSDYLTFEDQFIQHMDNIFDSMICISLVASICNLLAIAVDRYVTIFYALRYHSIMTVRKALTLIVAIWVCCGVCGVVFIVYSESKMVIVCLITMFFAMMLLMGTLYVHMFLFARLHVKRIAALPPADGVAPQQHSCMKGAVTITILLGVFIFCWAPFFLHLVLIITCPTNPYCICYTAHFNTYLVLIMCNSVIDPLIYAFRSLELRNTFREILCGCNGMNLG
T2 sequence (P33033 whole entry): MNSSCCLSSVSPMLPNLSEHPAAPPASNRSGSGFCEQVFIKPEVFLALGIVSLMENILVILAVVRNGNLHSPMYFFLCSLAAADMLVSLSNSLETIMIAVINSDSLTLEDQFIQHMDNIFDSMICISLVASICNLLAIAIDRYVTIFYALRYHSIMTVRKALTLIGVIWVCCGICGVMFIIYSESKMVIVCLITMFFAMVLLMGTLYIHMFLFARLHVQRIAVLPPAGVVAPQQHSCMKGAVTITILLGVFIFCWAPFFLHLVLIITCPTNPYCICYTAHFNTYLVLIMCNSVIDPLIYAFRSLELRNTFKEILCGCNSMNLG
T3 sequence (P32245 whole entry): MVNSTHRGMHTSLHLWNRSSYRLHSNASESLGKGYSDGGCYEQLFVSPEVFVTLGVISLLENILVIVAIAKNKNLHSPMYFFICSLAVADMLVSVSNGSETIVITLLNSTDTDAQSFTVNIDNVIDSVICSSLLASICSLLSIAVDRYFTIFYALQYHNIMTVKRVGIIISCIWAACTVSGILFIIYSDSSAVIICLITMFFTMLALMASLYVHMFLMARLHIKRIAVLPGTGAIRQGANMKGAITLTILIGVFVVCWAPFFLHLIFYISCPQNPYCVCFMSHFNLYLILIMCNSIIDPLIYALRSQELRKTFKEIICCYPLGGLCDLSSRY

Polymyxin B
MC3R over MC4R selectivity (MC3R [1]): four-fold
potency as MC3R antagonist (MC3R [1]; screen of Vanderbilt chemical library): submicromolar potency

Ac-Nle-c[Asp-Pro-Pro-DNal(2′)-Arg-Trp-Lys]-NH2 (Ac-[Nle]DPP[d2Nal]RWK-NH2; lactam 2-8) [PG990]
Acute food intake (MC3R [2]): acutely stimulated food intake
weight gain (MC3R [2]; 3 days of treatment): 8%
24 h food intake (MC3R [2]; PG990 series of peptides, route not given in the sentence): increases 24 h food intake
24-hour food intake (MC3R [2]): no significant difference
body weight (MC3R [2]): no significant difference
Fluorescence activity of PVN MC4R neurons (PVN MC4R neurons): Fluorescence activity was suppressed

C[N+]1([O-])CCN(C2=Nc3cc(Cl)ccc3Nc3ccccc32)CC1 [CNO, Clozapine-N-Oxide]
cfos expression in the arcuate nucleus ([3]; i.p. CNO vs saline, hM3Dq in arcuate MC3R neurons): increased cfos expression in the arcuate nucleus; also recorded: Dense cfos expression was observed in ARC-MC3R neurons
Change in body weight ([3]; single injection of CNO or saline, hM3Dq mice, CNO 0.1 mg/kg): Body weight increased on the day following CNO injection, remaining elevated five days following CNO injection
Change in body weight ([4]; long term / twice daily CNO): reduced BW in hM4Di transfected mice; also recorded: reduced both food intake and BW
Daily food intake ([4]; twice daily CNO): reduced daily food intake in hM4Di transfected mice; also recorded: reduced both food intake and BW
body weight (WT mice; CNO injections, WT littermate control mice): No change in food intake or body weight; also recorded: No effect on BW
food intake (WT mice; i.p. CNO vs saline, WT / littermate control mice): No change in food intake or body weight; also recorded: No difference in food intake was detected

[Ac6c-His-DPhe-Arg-Trp-Asp]-NH2 ([Ac6c]H[dF]RWD-NH2; N-terminus assumed; SMILES N=C(N)NCCC[C@H](NC(=O)[C@@H](Cc1ccccc1)NC(=O)[C@H](Cc1c[nH]cn1)NC(=O)C1(N)CCCCC1)C(=O)N[C@@H](Cc1c[nH]c2ccccc12)C(=O)N[C@@H](CC(=O)O)C(N)=O) [FMMC-5, MC3R peptide agonist]
Acute food intake (MC3R [2]): acutely stimulated food intake
24-hour food intake (MC3R [2]): no significant difference
body weight (MC3R [2]): no significant difference
EC50 (MC3R [5]): 30 nM
IC50 (MC3R [6]): 10 nM
EC50 (MC4R [7]): 280 nM
IC50 (MC4R [8]): 260 nM
